Reference: US20220195023A1
Numbering of substitutions follows the chain as printed.

B1: AB-007046 (antibody, V domains shown)
VH: QMQLVESGGGVVQPGRSLRLSCTASGFTFSTYAMHWVRQSPGQGLQWVAVISYHSTNKYYEDSVRGRFTISRDNSKNTLYLQMNSLRAEDTAVYYCARDGYSSSFFDFWGQGTLVTVSS
VL: DIQMTQSPSTLSASVGDRVAITCRASQSISRWLAWYQQQPGKAPKLLMSGASVLESGVPSRFSGSGSGTEFTLTISSLQPDDFATYYCQHYYSYFVTFGQGTKVEIK
B2: AB-007047 (antibody, V domains shown)
VH: B1 VH with T31N
VL: B1 VL with Y92N
B3: AB-007049 (antibody, V domains shown)
VH: B1 VH with Y53N, S55E
VL: B1 VL with Y92N
B4: AB-007051 (antibody, V domains shown)
VH: B1 VH with T56R
VL: B1 VL with Y92N
B5: AB-007052 (antibody, V domains shown)
VH: B1 VH with T56N
VL: B1 VL with Y92N
B6: AB-007054 (antibody, V domains shown)
VH: B1 VH with S102A
VL: B1 VL with Y92N
B7: AB-007057 (antibody, V domains shown)
VH: B1 VH with S102H
VL: B1 VL with Y92N

biological target: (NPNA)3 (Plasmodium falciparum); experiment: SPR, antibody on chip

Question: For B1, which Kd is on record?
Answer: Its Kd is 10.3 nM.

Question: How did the Kd turn out when B2 was run?
Answer: The Kd was 11.4 nM.

Question: With B3 as the binder, how does the Kd read?
Answer: Its Kd is 25.8 nM.

Question: For B4, which Kd is on record?
Answer: Its Kd is 5.19 nM.

Question: How did the Kd turn out when B5 was run?
Answer: The Kd was 6.31 nM.

Question: With B6 as the binder, how does the Kd read?
Answer: Its Kd is 10.5 nM.

Question: With B7 as the binder, how does the Kd read?
Answer: Its Kd is 40.3 nM.

biological target: (NVDP)3(NANP)2 (Plasmodium falciparum); experiment: SPR, antibody on chip

Question: With B1 as the binder, how does the Kd read?
Answer: The Kd was 2810 nM.

Question: For B2, which Kd is on record?
Answer: The Kd was 3680 nM.

Question: How did the Kd turn out when B3 was run?
Answer: The Kd was 7140 nM.

Question: Which Kd does the source give for B4 here?
Answer: The Kd was 2490 nM.

Question: Which Kd does the source give for B5 here?
Answer: Its Kd is 2560 nM.

Question: For B6, which Kd is on record?
Answer: Its Kd is 5670 nM.

Question: B7 was tested. Which Kd did it give?
Answer: Its Kd is 9090 nM.

biological target: … (Plasmodium falciparum); experiment: SPR, antibody on chip

Question: B1 was tested. Which Kd did it give?
Answer: Its Kd is 11600 nM.

Question: How did the Kd turn out when B2 was run?
Answer: Its Kd is 9370 nM.

Question: B3 was tested. Which Kd did it give?
Answer: The Kd was 2950 nM.

Question: For B4, which Kd is on record?
Answer: The Kd was 8840 nM.

Question: Which Kd does the source give for B5 here?
Answer: Its Kd is 7140 nM.

Question: B6 was tested. Which Kd did it give?
Answer: The Kd was 17600 nM.

Question: Which Kd does the source give for B7 here?
Answer: Its Kd is 20100 nM.

biological target: (NANP)6 (Plasmodium falciparum); experiment: SPR, antibody on chip

Question: With B1 as the binder, how does the Kd read?
Answer: Its Kd is 1.27 nM.

Question: For B2, which Kd is on record?
Answer: Its Kd is 0.156 nM.

Question: Which Kd does the source give for B3 here?
Answer: Its Kd is 0.092 nM.

Question: For B4, which Kd is on record?
Answer: Its Kd is 0.507 nM.

Question: Which Kd does the source give for B5 here?
Answer: The Kd was 0.0442 nM.

Question: For B6, which Kd is on record?
Answer: The Kd was 0.0552 nM.

Question: With B7 as the binder, how does the Kd read?
Answer: The Kd was 0.0419 nM.

biological target: (NPNA)3 (Plasmodium falciparum); experiment: BLI, target on sensor

Question: With B1 as the binder, how does the Kd read?
Answer: The Kd was 1.57 nM.

Question: How did the Kd turn out when B2 was run?
Answer: The Kd was 0.567 nM.

Question: Which Kd does the source give for B3 here?
Answer: The Kd was 0.326 nM.

Question: For B4, which Kd is on record?
Answer: Its Kd is 0.591 nM.

Question: How did the Kd turn out when B5 was run?
Answer: The Kd was 0.0169 nM.

Question: B6 was tested. Which Kd did it give?
Answer: Its Kd is 0.61 nM.

Question: How did the Kd turn out when B7 was run?
Answer: The Kd was 0.311 nM.

biological target: (NVDP)3(NANP)2 (Plasmodium falciparum); experiment: BLI, target on sensor

Question: With B1 as the binder, how does the Kd read?
Answer: Its Kd is 11.6 nM.

Question: With B2 as the binder, how does the Kd read?
Answer: The Kd was 8.11 nM.

Question: B3 was tested. Which Kd did it give?
Answer: Its Kd is 13 nM.

Question: For B4, which Kd is on record?
Answer: The Kd was 4.89 nM.

Question: With B5 as the binder, how does the Kd read?
Answer: Its Kd is 6.28 nM.

Question: For B6, which Kd is on record?
Answer: Its Kd is 10.2 nM.

Question: For B7, which Kd is on record?
Answer: Its Kd is 11.2 nM.

biological target: … (Plasmodium falciparum); experiment: BLI, target on sensor

Question: For B1, which Kd is on record?
Answer: The Kd was 9.15 nM.

Question: For B2, which Kd is on record?
Answer: Its Kd is 5.43 nM.

Question: B3 was tested. Which Kd did it give?
Answer: Its Kd is 12.3 nM.

Question: With B4 as the binder, how does the Kd read?
Answer: The Kd was 3.23 nM.

Question: Which Kd does the source give for B5 here?
Answer: The Kd was 3.83 nM.

Question: For B6, which Kd is on record?
Answer: The Kd was 8.5 nM.

Question: B7 was tested. Which Kd did it give?
Answer: The Kd was 10.5 nM.

biological target: NANPNVDP (Plasmodium falciparum); experiment: BLI, target on sensor

Question: For B1, which Kd is on record?
Answer: The Kd was 11.1 nM.

Question: Which Kd does the source give for B2 here?
Answer: Its Kd is 10 nM.

Question: How did the Kd turn out when B3 was run?
Answer: The Kd was 21.2 nM.

Question: With B4 as the binder, how does the Kd read?
Answer: Its Kd is 6.57 nM.

Question: Which Kd does the source give for B5 here?
Answer: Its Kd is 7.34 nM.

Question: Which Kd does the source give for B6 here?
Answer: Its Kd is 13.7 nM.

Question: For B7, which Kd is on record?
Answer: Its Kd is 15.3 nM.

biological target: (NANP)6 (Plasmodium falciparum); experiment: BLI, target on sensor

Question: Which Kd does the source give for B1 here?
Answer: The Kd was 2.58 nM.

Question: With B2 as the binder, how does the Kd read?
Answer: The Kd was 1.32 nM.

Question: Which Kd does the source give for B3 here?
Answer: Its Kd is 0.576 nM.

Question: For B4, which Kd is on record?
Answer: Its Kd is 1.08 nM.

Question: B5 was tested. Which Kd did it give?
Answer: The Kd was 0.392 nM.

Question: Which Kd does the source give for B6 here?
Answer: The Kd was 1.72 nM.

Question: For B7, which Kd is on record?
Answer: Its Kd is 0.976 nM.
